Results from patent publication US20070196883.

Columns and labels:
[1] = target: GST-PIF mutant Asp978 to Ala
[2] = target: GST-PIF mutant F974 to Ala
[3] = target: GST-PIF mutant F977 to Ala
[4] = target: GST-PIF mutant Asp978 to Ser
[5] = target: GST-PIF mutant Y979 to Ala
[6] = target: GST-PIF (glutathione-S-transferase fusion of the C-terminal 77 amino acids of PRK2)
[7] = target: T1, Region B peptide (24 residue synthetic peptide corresponding to Region B of PIF)
T1 chain: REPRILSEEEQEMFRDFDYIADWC

D978A-Region B peptide = target: T2, D978A-Region B peptide
T2 chain: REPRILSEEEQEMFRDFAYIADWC

GST-PIF mutant Y979 to Ala, sequence (chain, as listed by the source mutant): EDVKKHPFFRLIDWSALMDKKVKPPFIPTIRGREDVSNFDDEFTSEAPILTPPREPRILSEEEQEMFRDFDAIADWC
GST-PIF mutant F977 to Ala, sequence (chain, as listed by the source mutant): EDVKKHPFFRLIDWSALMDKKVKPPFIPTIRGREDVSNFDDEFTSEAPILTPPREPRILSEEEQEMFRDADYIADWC
GST-PIF mutant F974 to Ala, sequence (chain, as listed by the source mutant): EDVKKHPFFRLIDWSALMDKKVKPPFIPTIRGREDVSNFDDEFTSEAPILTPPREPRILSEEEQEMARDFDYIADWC
GST-PIF mutant Asp978 to Ser, sequence (chain, as listed by the source mutant): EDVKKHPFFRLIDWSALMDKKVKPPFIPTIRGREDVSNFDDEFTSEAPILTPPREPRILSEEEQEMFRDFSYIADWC

B1: endogenous PDK1 of 293 cells (protein)
chain: MARTTSQLYDAVPIQSSVVLCSCPSPSMVRTQTESSTPPGIPGGSRQGPAMDGTAAEPRPGAGSLQHAQPPPQPRKKRPEDFKFGKILGEGSFSTVVLARELATSREYAIKILEKRHIIKENKVPYVTRERDVMSRLDHPFFVKLYFTFQDDEKLYFGLSYAKNGELLKYIRKIGSFDETCTRFYTAEIVSALEYLHGKGIIHRDLKPENILLNEDMHIQITDFGTAKVLSPESKQARANSFVGTAQYVSPELLTEKSACKSSDLWALGCIIYQLVAGLPPFRAGNEYLIFQKIIKLEYDFPEKFFPKARDLVEKLLVLDATKRLGCEEMEGYGPLKAHPFFESVTWENLHQQTPPKLTAYLPAMSEDDEDCYGNYDNLLSQFGCMQVSSSSSSHSLSASDTGLPQRSGSNIEQYIHDLDSNSFELDLQFSEDEKRLLLEKQAGGNPWHQFVENNLILKMGPVDKRKGLFARRRQLLLTEGPHLYYVDPVNKVLKGEIPWSQELRPEAKNFKTFFVHTPNRTYYLMDPSGNAHKWCRKIQEVWRQRYQSHPDAAVQ
phosphorylation of PKBα at Ser473 (P-473 immunoblot) [1]: prevented the phosphorylation of PKBα at Ser473 | phosphorylation of PKBα at Ser473 (P-473 immunoblot) [2]: prevented the phosphorylation of PKBα at Ser473 | phosphorylation of PKBα at Ser473 (P-473 immunoblot) [3]: prevented the phosphorylation of PKBα at Ser473 | phosphorylation of PKBα at Ser473 (P-473 immunoblot) [4]: prevented the phosphorylation of PKBα at Ser473 | phosphorylation of PKBα at Ser473 (P-473 immunoblot) [5]: prevented the phosphorylation of PKBα at Ser473 | activation of GST-S473D-PKBα (Thr308 phosphorylation) by PDK1 associated with GST-PIF (0.5 µg) [6]: greatly activated a GST-A473D-PKBα mutant

B2: wild type GST-PDK1 (protein)
chain: B1 chain
phosphorylation of PKBα at Ser473 [7]: The region B peptide converts the wild type GST-PDK1, but not the kinase dead GST-PDK1, into a kinase which can phosphorylate Ser473 (data not shown)

B3: His-PDK1 (Myc-PDK1 with an N-terminal hexahistidine sequence, from Sf21 insect cells) (protein)
chain: B1 chain
phosphorylation of PKBα at Ser473 (P-473 immunoblot, 32P peptide mapping) (D978A-Region B peptide): far less effective at inducing this alteration in the specificity of PDK1
